Data on 2 proteins can be found in publication PMC7588053, “Cholesterol oxidase from Rhodococcus erythropolis with high specificity toward β-cholestanol and pytosterols” (PLoS ONE, 2020).

Substrate in this data set: CC(C)CCC[C@@H](C)[C@H]1CC[C@H]2[C@@H]3CC=C4C[C@@H](O)CC[C@]4(C)[C@H]3CC[C@]12C
Briefly: purified protein. The format is biochemical, Rhodococcus erythropolis. The conditions noted are these: O2 as co-substrate, 0-1 mM cholesterol, 50 mM sodium phosphate pH 7.0, 64 mM sodium cholate, 0.34% Triton X-100, 30°C.

B1: ChoRII (Rhodococcus erythropolis PR4) (protein)
chain: VPWGSASTIAPPPGFPSDIPLSQQAYANWSREIMLESVWTATARHSDDVVTLANWAFDNGYTVRAKGTMHGWSPLTVVPGAPSDRVLLVDTMANLNSVVVQHGTPATVTAGAGASIEAILTALEREGLGWANAPAIGELSIAGALAIGAHGATYPAVGETITPGQSYGSLSNLITEITVVAWDEGRNRYGLKTFHRSDDEITAFLTHLGRTFVTSVTLQAGENYRLRCRSFTDIPWQELFAAPGSPGRTYESFVEKSGRVEAIWFPFTQTPWLKVWTPTPVKPPESREVSGPYNYFFSDAIPEEVTTPLGMVAQGLQAATPLFGASQFGAVAAGLALTDTDDLWGWSKDVLFYLRHTTLRVVAGGGAVITKRSNIGRVVHEMTSWLNERMTHYASLGQYPVNMPFEVRLCGVDDSGEVLVDSAGVPDLSAVRPRADRQDWDTAIWMNVVSIPGTAGLPAFLREMERWMVANYSGDYATFRPEWSKGWAFTDQAAYQDDEFLTSTVPATFRAGGDGNWDFALATLDEHDPHRVFSNTFIDRVLPPS
notes: predicted mature enzyme, Tat signal peptide removed (Val-45 given, but 545 aa given would mean start at 44), C-terminal 6xHis kept, pET-21b(+), E. coli Rosetta (DE3) pLysS; precursor 588 aa, mature 59,369 Da; VAO family flavoenzyme (FAD)
What is called Km is the substrate concentration at which the rate is half of its maximum. By Vmax is commonly meant the top rate of the reaction or transport when substrate is in excess. What is called kcat is the number of substrate molecules converted per active site and unit of time at saturation. For orientation: kcat/Km means the turnover number divided by the Michaelis constant. Regarding B1, the Km worked out at 22.1 ± 0.3 µM, the Vmax amounted to 0.57 µmol/min/mg, the kcat was determined as 0.61 ± 0.11 s⁻¹ and the kcat/Km amounted to 30000 ± 10000 M⁻¹ s⁻¹.

B2: ChoRI (Rhodococcus erythropolis PR4) (protein)
chain: VPAGSSGSAGGPVSTLTPPPAFPEGIALYQQAYQNWSKEIMLDAIWTCSPKTPEDVVRLANWGHANGYTIRPRGAMHGWTPLTIVNGAPVDKVILADTTVHLTGVSVNAGGSPATVTAGPGATLDAITTALQAQGLGFANLPAPGVLTIAGCLAVDAHGAALPAEGEAHVPGQTFGSLSNLVTSLTAVVWNGSEYALETYARSDAAIKPLLTHLGRTFLTSVTLQAAPNYRMRCVSHTDIGWQELFGARGASGRTFEKFVRENGRAEAIWYPFTERPWMKVWSLAPTKPPFSREVTGPYNYIFSDNLPEPVTDMIGQINAGNPGIAPAFGQIMYATTVAGLAATFSNDLWGWSKDVQFYIRATTLRLTEGGGAVITSRANIGQVIHDFTQWFNGRMEYYRSIGQFPLNGPVEIRCCGLDQPSDVEVDSAGAPTISAMRPRPDHPEWDTAIWLNVLGVPGTPGMFAFYREMEQWMRNHYNNNDATFRPEWSKGWAFGPDKPYTDAPIITQGLPQTYRDGVPSSDNWDTANAAYNALDPHKVFSNTFLDQLLP
notes: predicted mature enzyme, Tat signal peptide removed (from Val-37), C-terminal 6xHis kept, pET-21b(+), E. coli Rosetta (DE3) pLysS; precursor 587 aa, mature 551 aa, 59,590 Da; VAO family flavoenzyme (FAD)
As for B2, the Km was found to be 22.6 ± 0.5 µM, the maximal velocity (Vmax) worked out at 6.4 µmol/min/mg, the kcat worked out at 6.8 ± 0.3 s⁻¹ and the kcat/Km was 300000 ± 10000 M⁻¹ s⁻¹.
